These are literature values, as cited in paper PMC3113683 (Biochemistry, 2009).

One series relates to PEP. To be noted: immunoprecipitated full-length PEP vs amino acids 1−290; ref [5]; cited from earlier work.
Series [1] relates to T cell receptor (TCR) signaling. To be noted: cited from earlier work.
In another series the test system is LYP. Particulars: ref [7], [18]; cited from earlier work.

B1: PEP: mouse homologue of LYP called PEST-enriched phosphatase (protein, UniProt P29352 1-802, looked up)
Tyrosine-protein phosphatase …: MDQREILQQLLKEAQKKKLNSEEFASEFLKLKRQSTKYKADKIYPTTVAQRPKNIKKNRYKDILPYDHSLVELSLLTSDEDSSYINASFIKGVYGPKAYIATQGPLSTTLLDFWRMIWEYRILVIVMACMEFEMGKKKCERYWAEPGETQLQFGPFSISCEAEKKKSDYKIRTLKAKFNNETRIIYQFHYKNWPDHDVPSSIDPILQLIWDMRCYQEDDCVPICIHCSAGCGRTGVICAVDYTWMLLKDGIIPKNFSVFNLIQEMRTQRPSLVQTQEQYELVYSAVLELFKRHMDVISDNHLGREIQAQCSIPEQSLTVEADSCPLDLPKNAMRDVKTTNQHSKQGAEAESTGGSSLGLRTSTMNAEEELVLHSAKSSPSFNCLELNCGCNNKAVITRNGQARASPVVGEPLQKYQSLDFGSMLFGSCPSALPINTADRYHNSKGPVKRTKSTPFELIQQRKTNDLAVGDGFSCLESQLHEHYSLRELQVQRVAHVSSEELNYSLPGACDASCVPRHSPGALRVHLYTSLAEDPYFSSSPPNSADSKMSFDLPEKQDGATSPGALLPASSTTSFFYSNPHDSLVMNTLTSFSPPLNQETAVEAPSRRTDDEIPPPLPERTPESFIVVEEAGEPSPRVTESLPLVVTFGASPECSGTSEMKSHDSVGFTPSKNVKLRSPKSDRHQDGSPPPPLPERTLESFFLADEDCIQAQAVQTSSTSYPETTENSTSSKQTLRTPGKSFTRSKSLKIFRNMKKSVCNSSSPSKPTERVQPKNSSSFLNFGFGNRFSKPKGPRNPPSAWNM
For B1, in the series on PEP, the “Catalytic activity vs catalytic domain alone” value is reported as “much lower than the activity of the catalytic domain alone”. Further, the “Inhibition of T cell receptor signaling” value in series [1] (T cells, ref [4]-[8]) is “potently inhibit T cell receptor (TCR) signaling”.

B2: LYP-W620: genetic variant of LYP carrying Trp620 instead of Arg620 in the C-terminal domain (protein, UniProt Q9Y2R2 1-807, looked up, variant R620W)
Tyrosine-protein phosphatase …: MDQREILQKFLDEAQSKKITKEEFANEFLKLKRQSTKYKADKTYPTTVAEKPKNIKKNRYKDILPYDYSRVELSLITSDEDSSYINANFIKGVYGPKAYIATQGPLSTTLLDFWRMIWEYSVLIIVMACMEYEMGKKKCERYWAEPGEMQLEFGPFSVSCEAEKRKSDYIIRTLKVKFNSETRTIYQFHYKNWPDHDVPSSIDPILELIWDVRCYQEDDSVPICIHCSAGCGRTGVICAIDYTWMLLKDGIIPENFSVFSLIREMRTQRPSLVQTQEQYELVYNAVLELFKRQMDVIRDKHSGTESQAKHCIPEKNHTLQADSYSPNLPKSTTKAAKMMNQQRTKMEIKESSSFDFRTSEISAKEELVLHPAKSSTSFDFLELNYSFDKNADTTMKWQTKAFPIVGEPLQKHQSLDLGSLLFEGCSNSKPVNAAGRYFNSKVPITRTKSTPFELIQQRETKEVDSKENFSYLESQPHDSCFVEMQAQKVMHVSSAELNYSLPYDSKHQIRNASNVKHHDSSALGVYSYIPLVENPYFSSWPPSGTSSKMSLDLPEKQDGTVFPSSLLPTSSTSLFSYYNSHDSLSLNSPTNISSLLNQESAVLATAPRIDDEIPPPLPVWTPESFIVVEEAGEFSPNVPKSLSSAVKVKIGTSLEWGGTSEPKKFDDSVILRPSKSVKLRSPKSELHQDRSSPPPPLPERTLESFFLADEDCMQAQSIETYSTSYPDTMENSTSSKQTLKTPGKSFTRSKSLKILRNMKKSICNSCPPNKPAESVQSNNSSSFLNFGFANRFSKPKGPRNPPPTWNI
Turning to B2, the “Phosphatase activity of variant” value with LYP is reported as “increased phosphatase activity”. Also, the “Effect of variant on signaling” value in series [1] (ref [7], [18]) is recorded as “gain-of-function inhibitor of signaling”.
